A short description of this series: yeast display, Sf9 membrane polyspecificity reagent, FACS + sequencing; frameworks hold sequencing errors. The procedure, abridged:
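Polyreactivity labels are assigned by the sorting gate from which each nanobody was recovered. The gates were low and high (top ~1%), set on anti-HA fluorescence for expression and streptavidin fluorescence for reagent binding. Before sorting, galactose-induced (36–48 hours) yeast display cells were stained for 1 hour at 4 °C with 10% biotinylated, detergent-solubilized Sf9 membrane reagent.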
Take “QVQLVESGGGLVQAGGSLLLICAASGSTFYLNAMGWYRQAPGKERELVAAITGRSGSTYYADSVKVRFTISRDNAKNTVYLQMNSLKPEDTAVYYCAADYSPWRSDFDYWGQGTQVTVSS”: the “polyreactivity (PSR sort gate)” value is “low polyreactivity”. Next, “QVQLVESGGGLVQAGGSLRLSCAASGRIFSTYAMGWYRQAPGKERELVAAISWRGSSTYYADSVKGRFTISRDNAKNTVYLQMNSLKPEDTAVYYCNADKANRYDWGQGTQVTVSS”: “high polyreactivity”.

As to “QGQLVESGGGLVQAGGSLRLSCAASGSISLYAMGWYRQAPGKERELVAAITKSGGSTYYADSVKGRFTISRDNAKNTVYLQMHSLKPEDTAVYYCNRGGGERKYNYWGQGTQVTVSS”, the “polyreactivity (PSR sort gate)” value is “high polyreactivity”. In the case of “QVQLVESGGGLVQAGGSLRLSCAASGFTIRQYAMGWYRQAPGKERELVAAISGRGGTTYYADSVKGRFTISRDNAKNTVYLQMNSLKPEDTAVYYCAARTFDRGKIPPPYDYWGQGTQVTVSS”, the “polyreactivity (PSR sort gate)” value is on record as “high polyreactivity”. Consider “QVQLVESGGGLVQAGGSLRLSCAASGRTLCVNAMGWYRQAPGKERELVAAISTRGTTTNYADSVKGRFTISRDIAKNTVYLQMNSLKPEDSAVYYCATRTYRTYPRYDYWGQGTQVTVSS”, for which the “polyreactivity (PSR sort gate)” value is given as “low polyreactivity”. With “QVQLVESGGGLVQAGGSLRLSCAASGSIARNAMGWYRQAPGKERELVATISSGGGTYYADSVKGRFTISRDNAKNTVYLQMHSLKPEDTAVYYCAADGWEVPWPAIWDSLYEYWGQGTQVTVSS” the entry was “high polyreactivity”; with “QVQLVESGGGLVQAGGSLRLSCAASGRTFWSYAMGWYRQAPGKERELVAAIRTSDGITYYADSVKGRFTISRDNAKNTVYLQMNSLKPEDTAVYYCARDIRQYILYGRGDYWGQGTQVTVSS”, “low polyreactivity”. With “QVQLQESGGGLVQAGGSLRLICAASCTISQEDWMGWYRQAPGKEREFVAAIGLGSNTNYADSLKGRFTISRDNAKITVYLQMNSLKPEDTAVYYCNNDSTNNPFQYDYWGQGTQVTVSS” the entry was “low polyreactivity”. Next, “QVQLVESGGGLVQAGGSLRLSCAASGSTLDVYDMGWYRQAPGKEREFVATISFSVGSTDYADSVKGRFTISRDNAKNTVYLQMNSLKPEDTAVYYCAADVSEWSNQYFDSYLRMDYWGQGTQVTVSS”: “low polyreactivity”; “QVQLVESGGGLVQAGGSRRLSCADSGSIFDQYTMGWSRQAPGKEWELVAGISSGGITNYADSVKGRFTLSRDNAKNTVYLQMTSLKPEDTAVYYCPADNWDLAEYDYWGQGPQVTVSS”: “low polyreactivity”. With “QVQLVESGGGLVQAGGSLRLSCAASGSISYTYAMGWYRQATGKERELVASISYSEGITYYADSVKGRFTISRDNAKNTVYLQMNSLKPEDTAVYYCAVEGVYPYYDQSEYDYWGQGTQVTVSS”, the “polyreactivity (PSR sort gate)” value is “high polyreactivity”. With “QDQLVESGGGLVQAGGSLRLSCAASGRINAMGWYRQAPGKERELVAVITLRGGSTYYADSVKGRFTISRDNAKNTVYLQMNSLKPEDTAVYYCAAETLVSFWFDYWGQGTQVTVSS”, the “polyreactivity (PSR sort gate)” value is “low polyreactivity”. Regarding “QVKLVESGGGLVQAGGSLRLSCAAYGSTFAGYAMGWYRQAPGKERELVAAISVSGGSTDYADSVKGRFTISRDNAKNTVYLQMNSLKPEDTAVYYCAAVYVRNQWWRNYYWGQGTQVTVSS”, the “polyreactivity (PSR sort gate)” value is reported as “low polyreactivity”. With “QVQLVESGGGLVQAGGSLRLSCAASGSIFVIYSMGWYRQAPGKERELVARITKSGGSTYYADSVKGRFTISRDNAKITVYLQMNSLKPEDTAVYYCNVGYGGSSDGGYDYWGQGTQVTVSS”, the “polyreactivity (PSR sort gate)” value is on record as “high polyreactivity”. With “QVQLVESGGGLVQAGGSLRLSCAASGSTFLYNTMGWYRQAPGKERELVATITSRGDRTYYADSVKGRFTISRDIPKNNVYLQMNSLKPEDTAVYYCNAYGGNYPQSYRYYYWGQGTQVTVSS” the entry was “low polyreactivity”; with “QVQLVESGGGLVQAGGSLRLSCAASGFTFSYYAMGWYRQAPAKEREVVAAISRSGGSTYYADSVKGRFTISRDNAKNTVYFQMNSLIPEDTAVYYCATDLYYRHGYCGQGTQVTVSS”, “high polyreactivity”.

“QVQIVESGGGLVQAGGSLRLSCAASGFTSQFYAMGWYRQAPGKEMELVAAISSGSSTYYADSVKGRFTSSRDNAKNTVYLQMNSLKPEDTAVYYCATTHKTLRRYDSWGQGTKVTVSS”: the “polyreactivity (PSR sort gate)” value is given as “low polyreactivity”. Next, “QVQLVESGGGLVQAGGSLRLSCAASGSIFGTNGMGWYRQAPGKERELVAAITRRGGSTYADSVKGRFTISRDNAKNTVYLQMNSLKPEDTAVYYCAVDQGYVVRLAWIYGYWGQGTQVTVSS”: “low polyreactivity”. Turning to “QVQLVESGGGLVQAGGSLRLSCAASGSIFTVYTMGWYRQAPGKERELVAAINSRGGTTYYADSVKGRFTISRDNAKNTVYLQMNSLKPEDTAVYYCAAKQRPKSYGPGHYYWGQGTQVTVSS”, the “polyreactivity (PSR sort gate)” value is “high polyreactivity”.

For the sequence “QVQLVESGGGLVQAGGSLRLSCAASGRTFGRNAMGWYRQAPGKEREFVAAISYRGGSTYYADSVKGRFTISRDNAKNTVYLQMNSLKPEDTAVYYCAVRFSAPGYYYWGQGTQVTVSS”, the “polyreactivity (PSR sort gate)” value is on record as “high polyreactivity”.

In the case of “QVQLVESGGGLVQAGGSLRLTCAASGRTFHGNAMGWYRPAPGKERELVAAISYSGGRTYYADSVKGRFTISRDNAKNTVYLQMNSLKPEDTAVYYCAAWGSSYSFDYWGQGTQVTVSS”, the “polyreactivity (PSR sort gate)” value is “high polyreactivity”. Next, “QVQLVESGGGLVQAGGSLRLSCAASGRTFRKYAMGWYRQAPGKERELVAAISWSGGSTYYANSVKGRFTISRVNAKNTVYLQMNSLKPEDTAVYYCAAVPVDTGSLYWGFTTGYDYWGQGTQVTVSS”: “low polyreactivity”; “QVQLVESGGGLVQAGGSLRLSCAPSGFIFYGYAMGWYRPAPGKERELVAAISRRGGSTYYADSVKGRFTISRDDAKNSVYLQMNSLKPEDTAVYYCAATYEVNYRKYGYWGQGTQVTVSS”: “high polyreactivity”. For the sequence “QVQLVESGGGLVQAGGSLRLSCAASGSIDNIYAMGWYRQAPGKERELVATITGIADSTYYADSVKGRFTISRDNAKNTVFLQMNSLKPEDTAVYYCAADKYVAEYDYWGQGTQVTVSS”, the “polyreactivity (PSR sort gate)” value is “low polyreactivity”. For “QVQLVESGGGLVQAGGSLRLSCAASGRIFNIYAMGWYRQAPGKERELVAAIRGRGGSTYYADSVKGRFTISRDNAKNTVYLQMNSLKPEDTAVYYCAADSGPFYSKTQTRYGYWGQGTQVTVSS”, the “polyreactivity (PSR sort gate)” value is “high polyreactivity”. With “QVQLVESVGGFVQAGGSLRLSCAASGFTFRIYAMGLYRKATVKERELVAGITWSVGSTYYADSVKGRFTISRDNAKNTVYLQMNSLKPEETAVYYCAVRRNQHVVQLYYWGQGTQGTVSS” the entry was “low polyreactivity”; with “QVQLVESGGGLVQAGGSLRLSCAASGGTFFENAMGWDRQAPGKERELVAAISSSGASTYYADSVKGRFTISRDNAKNTVYLQMNSLKPEDTAVYYCNAGQRVRSTLYDYWGQGTQVTVSS”, “high polyreactivity”. In the case of “QVQLVESGGGLVKAGGSLRLSCAASGSTFDYYAMGWYRQAPGKERELVAAISGSGGSTYYADSVKGRFTISRDIAKNTVYLQMNSLKPEDTAVYYCATVRSRLFGQYYYWGQGTQVTVSS”, the “polyreactivity (PSR sort gate)” value is “high polyreactivity”. For “QVQLVESGGGLVQAGGSLRFSCAASGGIFWYNAMGWYRQAPGKERELVAAISASTGSTYYADSVKGRFTISRDNAKNTVYLQMNSLKPEDTAVYYCAATRYRSARYAYGHWGQGTQVTVSS”, the “polyreactivity (PSR sort gate)” value is reported as “high polyreactivity”. Next, “QVQLVESGGGLVQAGGSLRLSCAASGRTFGYYTMGWYRQAPGKEWELVATIRWSGGSTYADSVKGRFTISRDNAKNTVYLQLNSLKPEDTAVYYCYVDPSYYKILFNGFYYWGQGTQVTVSS”: “high polyreactivity”; “QVQLVESGGGLVQAGGSLRLICAASGRSFIGNAMGWYSQAPGKDREFDAAISRRGGSTYYADSVKGRFTISRDNEKNTVYLQMNSLKPEDTAVYYCAAGQTTTGILTYYYWGQGTQVTGSS”: “high polyreactivity”; “QLQLVESGGGLVQAGCSLRLSFAASVIICWANAMGCYIHAPGKERELVASITSGGSTYYADSVKGRFTISRDNAKTTVYFQMNSLKPEDTAVYYCAADPYGWWDWHTLGTYDYWGQGTQVTVSS”: “low polyreactivity”.

On to “QVQLVESGGGLVQAGGSLRLSCAASGRTFYWNAMGWYRQAPGKDRDLVASISWSGGRTYYADSVKGRFTISRDNAKNTVYLQMNSLKPEDTAVYYCARRYSGTPSTFYYWGQGTQVNVSS”, for which the “polyreactivity (PSR sort gate)” value is given as “high polyreactivity”.

As to “QVQLVESGGGLVQAGGSLRLSCAASGITLGYYAMGWYRQAPGKERELVAAISYSSGSTYYADSVKGRFTIARDTAKNTVYLQMNSLKPEDTAVYYCAKYVTYYLPTYSPSGKHDYWGQVTQVTVSS”, the “polyreactivity (PSR sort gate)” value is reported as “low polyreactivity”. With “QDQLVESGGGLVQAGGSLRLSCAASGIILRYYVMGWYRQAPGKERELVAAITSRGGSTYYADSVKGRFTISRDNAKNTVYLQMNSLKPEDTAVYYCAAGYRNVNTFDYWGQGTQVTVSS” the entry was “high polyreactivity”. As for “QVQLVESGGGLVQAGGSLRLSCAASGIIFWYNAMGWYRQAPGKERELVAAITYSGGSTYYADSVKGRFTISRDNAKNTVYLQMNSLKPEDTAVYYCAADGYSRYASGGYEYWGQGTQVTVSS”, the “polyreactivity (PSR sort gate)” value is reported as “low polyreactivity”.

In the case of “QVQLVESGGGLVQAGGSLRLSCAASGRIFTLYAMGWYRQAPGKERELVAGISRSGGSTYYADSVKGRFTISRDNAKNTVYLQMNSLKPEDTAVYYCNAVPIYYAWRRNKPFDYWGQGTQVTVSS”, the “polyreactivity (PSR sort gate)” value is reported as “low polyreactivity”. Next, “QVQLVESGGGLVQAGGSLRLSCAASGRTFGYYAMGWYRQAPGKERELVAAIRSTGSTNYADSVKGRFTISRDNAKNTVYLQMNSLKPDDTAVYYCNADPWWRFDYWGQGTQVTVSS”: “low polyreactivity”.

Turning to “QVQLVESGGGLVQAGGSLRLSCAASGFIFYRKTMGWYRQAPGKERELDAAISVSGGSTNYADSVKGRFTISRDNAKNTVYLQMNSLKPEDTAVYYCAARVRDSLVYGGWDDYWGQGTQVTVSS”, the “polyreactivity (PSR sort gate)” value is recorded as “high polyreactivity”. With “QVPLVESGGGLVQAGGRLRLSCAASGSTLLNSPMGWYRKAPGKERELVAAISSSGGRTYYPDSVKGRFTISRDNAKNTVYLQMNSLTPEDTEVYYCNKVLGYPKTFGYWGQGTQVSVSS” the entry was “high polyreactivity”. With “QVQLVESGGGLVQAGGSLRLSCAAYGSTLSPYTMGWYRQAPGKERELVAAITQSGGSTYYADSVKGRFTISRDKAKYTVYLQMNSLKPEDTAVYYCNRDYNADYDWGQGTQVTVSS” the entry was “high polyreactivity”.

The values are drawn from the nanobody polyreactivity screen of Harvey et al. (2022).
